Results published in publication PMC7484505.
Blank lines part the entries; values can stand above or below the substance they belong to.

Legend:
[1] = biological target: hNav1.7/A1632E (human) (UniProt Q15858)
[2] = biological target: hNav1.7/A1632E^His-StrepII (human) (UniProt Q15858)
[3] = biological target: hNav1.7^GFP (human) (UniProt Q15858)

- maximal relative persistent current of hNav1.7/A1632E in HEK293T cells (patch clamp), without against with co-expressed difopein [1]: 13.2%
Substance: hNav1.7/A1632E (from UniProt Q15858-3 1-1977) (natural protein)

- maximal relative persistent current of hNav1.7/A1632E in X. laevis oocytes (TEVC), without against with co-injected difopein cRNA [2]: -13.6%
Substance: hNav1.7/A1632E^His-StrepII (from UniProt Q15858-3 1-1977) (natural protein)

- peak current density (whole-cell patch clamp) of the Nav1.7 stable HEK cell line (untagged hNav1.7/WT) on co-expression of hNav1.7/R896Q, against the stable line alone [3]: 31%
Substance: hNav1.7/R896Q (from UniProt Q15858-3 1-1977) (natural protein)
